Data reported in the supplement of paper PMC5998384.

Key:
HeLa Kyoto [1] = assay: solubility in G1/S (NP-40 vs SDS abundance) (log2 ratio); higher = more soluble; details: cell cycle stage: G1/S
HeLa Kyoto [2] = assay: thermal stability score vs G1/S (z-score of summed log2 fold changes over temperatures); higher = more thermally stable than in G1/S
HeLa Kyoto [3] = assay: solubility change mitosis vs G1/S (difference of NP-40 vs SDS log2 ratios) (log2 ratio difference); higher = more soluble in mitosis
HeLa Kyoto [4] = assay: melting temperature (median over replicates), in situ; higher = more thermally stable
[5] = cell cycle stage: early G1 (4.5 h after nocodazole release)
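Throughout, for melting temperature (median over replicates), in situ: HeLa Kyoto cells synchronized by double thymidine or nocodazole block, proteins quantified by TMT10plex mass spectrometry, three independent biological replicates.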
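Throughout, for solubility change mitosis vs G1/S (difference of NP-40 vs SDS log2 ratios): synchronized HeLa Kyoto cells (double thymidine block for G1/S, nocodazole release for mitosis), protein amounts in NP-40 versus SDS lysates quantified by mass spectrometry, three biological replicates.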
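Throughout, for solubility in G1/S (NP-40 vs SDS abundance): HeLa Kyoto cells arrested at G1/S by double thymidine block, proteins quantified by TMT10plex mass spectrometry in mild NP-40 versus SDS extracts, three biological replicates.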
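Throughout, for thermal stability score vs G1/S (z-score of summed log2 fold changes over temperatures): synchronized HeLa Kyoto cells, proteins quantified by TMT10plex mass spectrometry, three biological replicates, mitosis taken 0.5 h after nocodazole release, G1/S directly after double thymidine block.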

Row | Sequence | solubility in G1/S (log2) (HeLa Kyoto [1]) | thermal stability score (HeLa Kyoto [2]; [5]) | thermal stability score (HeLa Kyoto [2]; cell cycle stage: mitosis) | solubility change mitosis (log2) (HeLa Kyoto [3]) | melting temperature (HeLa Kyoto [4]; cell cycle stage: G1/S) [°C] | melting temperature (HeLa Kyoto [4]; cell cycle stage: mitosis) [°C]
1 | MAPGCKTELRSVTNGQSNQPSNEGDAIKVFVRIRPPAERSGSADGEQNLCLSVLSSTSLRLHSNPEPKTFTFDHVADVDTTQESVFATVAKSIVESCMSGYNGTIFAYGQTGSGKTFTMMGPSESDNFSHNLRGVIPRSFEYLFSLIDREKEKAGAGKSFLCKCSFIEIYNEQIYDLLDSASAGLYLREHIKKGVFVVGAVEQVVTSAAEAYQVLSGGWRNRRVASTSMNRESSRSHAVFTITIESMEKSNEIVNIRTSLLNLVDLAGSERQKDTHAEGMRLKEAGNINRSLSCLGQVITALVDVGNGKQRHVCYRDSKLTFLLRDSLGGNAKTAIIANVHPGSRCFGETLSTLNFAQRAKLIKNKAVVNEDTQGNVSQLQAEVKRLKEQLAELASGQTPPESFLTRDKKKTNYMEYFQEAMLFFKKSEQEKKSLIEKVTQLEDLTLKKEKFIQSNKMIVKFREDQIIRLEKLHKESRGGFLPEEQDRLLSELRNEIQTLREQIEHHPRVAKYAMENHSLREENRRLRLLEPVKRAQEMDAQTIAKLEKAFSEISGMEKSDKNQQGFSPKAQKEPCLFANTEKLKAQLLQIQTELNNSKQEYEEFKELTRKRQLELESELQSLQKANLNLENLLEATKACKRQEVSQLNKIHAETLKIITTPTKAYQLHSRPVPKLSPEMGSFGSLYTQNSSILDNDILNEPVPPEMNEQAFEAISEELRTVQEQMSALQAKLDEEEHKNLKLQQHVDKLEHHSTQMQELFSSERIDWTKQQEELLSQLNVLEKQLQETQTKNDFLKSEVHDLRVVLHSADKELSSVKLEYSSFKTNQEKEFNKLSERHMHVQLQLDNLRLENEKLLESKACLQDSYDNLQEIMKFEIDQLSRNLQNFKKENETLKSDLNNLMELLEAEKERNNKLSLQFEEDKENSSKEILKVLEAVRQEKQKETAKCEQQMAKVQKLEESLLATEKVISSLEKSRDSDKKVVADLMNQIQELRTSVCEKTETIDTLKQELKDINCKYNSALVDREESRVLIKKQEVDILDLKETLRLRILSEDIERDMLCEDLAHATEQLNMLTEASKKHSGLLQSAQEELTKKEALIQELQHKLNQKKEEVEQKKNEYNFKMRQLEHVMDSAAEDPQSPKTPPHFQTHLAKLLETQEQEIEDGRASKTSLEHLVTKLNEDREVKNAEILRMKEQLREMENLRLESQQLIEKNWLLQGQLDDIKRQKENSDQNHPDNQQLKNEQEESIKERLAKSKIVEEMLKMKADLEEVQSALYNKEMECLRMTDEVERTQTLESKAFQEKEQLRSKLEEMYEERERTSQEMEMLRKQVECLAEENGKLVGHQNLHQKIQYVVRLKKENVRLAEETEKLRAENVFLKEKKRSES [KIF15] | 0.087 | 0.584 | 1.61 | -0.0831 | 48.4 | 49.4
2 | MAPKFPDSVEELRAAGNESFRNGQYAEASALYGRALRVLQAQGSSDPEEESVLYSNRAACHLKDGNCRDCIKDCTSALALVPFSIKPLLRRASAYEALEKYPMAYVDYKTVLQIDDNVTSAVEGINRMTRALMDSLGPEWRLKLPSIPLVPVSAQKRWNSLPSENHKEMAKSKSKETTATKNRVPSAGDVEKARVLKEEGNELVKKGNHKKAIEKYSESLLCSNLESATYSNRALCYLVLKQYTEAVKDCTEALKLDGKNVKAFYRRAQAHKALKDYKSSFADISNLLQIEPRNGPAQKLRQEVKQNLH [TOMM34] | 0.584 | 0.535 | 1.04 | 0.108 | 47.4 | 48.8
3 | MAPNIYLVRQRISRLGQRMSGFQINLNPLKEPLGFIKVLEWIASIFAFATCGGFKGQTEIQVNCPPAVTENKTVTATFGYPFRLNEASFQPPPGVNICDVNWKDYVLIGDYSSSAQFYVTFAVFVFLYCIAALLLYVGYTSLYLDSRKLPMIDFVVTLVATFLWLVSTSAWAKALTDIKIATGHNIIDELPPCKKKAVLCYFGSVTSMGSLNVSVIFGFLNMILWGGNAWFVYKETSLHSPSNTSAPHSQGGIPPPTGI [SYPL1] | -0.227 | -3.54 | -3.06 | 0.0843 | 56.1 | 56.9
4 | MAPPSVFAEVPQAQPVLVFKLTADFREDPDPRKVNLGVGAYRTDDCHPWVLPVVKKVEQKIANDNSLNHEYLPILGLAEFRSCASRLALGDDSPALKEKRVGGVQSLGGTGALRIGADFLARWYNGTNNKNTPVYVSSPTWENHNAVFSAAGFKDIRSYRYWDAEKRGLDLQGFLNDLENAPEFSIVVLHACAHNPTGIDPTPEQWKQIASVMKHRFLFPFFDSAYQGFASGNLERDAWAIRYFVSEGFEFFCAQSFSKNFGLYNERVGNLTVVGKEPESILQVLSQMEKIVRITWSNPPAQGARIVASTLSNPELFEEWTGNVKTMADRILTMRSELRARLEALKTPGTWNHITDQIGMFSFTGLNPKQVEYLVNEKHIYLLPSGRINVSGLTTKNLDYVATSIHEAVTKIQ [GOT1] | 0.34 | -1.19 | -1.58 | -0.116 | 58.1 | 64.1
5 | MAPQNLSTFCLLLLYLIGAVIAGRDFYKILGVPRSASIKDIKKAYRKLALQLHPDRNPDDPQAQEKFQDLGAAYEVLSDSEKRKQYDTYGEEGLKDGHQSSHGDIFSHFFGDFGFMFGGTPRQQDRNIPRGSDIIVDLEVTLEEVYAGNFVEVVRNKPVARQAPGKRKCNCRQEMRTTQLGPGRFQMTQEVVCDECPNVKLVNEERTLEVEIEPGVRDGMEYPFIGEGEPHVDGEPGDLRFRIKVVKHPIFERRGDDLYTNVTISLVESLVGFEMDITHLDGHKVHISRDKITRPGAKLWKKGEGLPNFDNNNIKGSLIITFDVDFPKEQLTEEAREGIKQLLKQGSVQKVYNGLQGY [DNAJB11] | 0.337 | 3 | 0.842 | -0.0195 | 54.7 | 55
6 | MAPRLQLEKAAWRWAETVRPEEVSQEHIETAYRIWLEPCIRGVCRRNCKGNPNCLVGIGEHIWLGEIDENSFHNIDDPNCERRKKNSFVGLTNLGATCYVNTFLQVWFLNLELRQALYLCPSTCSDYMLGDGIQEEKDYEPQTICEHLQYLFALLQNSNRRYIDPSGFVKALGLDTGQQQDAQEFSKLFMSLLEDTLSKQKNPDVRNIVQQQFCGEYAYVTVCNQCGRESKLLSKFYELELNIQGHKQLTDCISEFLKEEKLEGDNRYFCENCQSKQNATRKIRLLSLPCTLNLQLMRFVFDRQTGHKKKLNTYIGFSEILDMEPYVEHKGGSYVYELSAVLIHRGVSAYSGHYIAHVKDPQSGEWYKFNDEDIEKMEGKKLQLGIEEDLAEPSKSQTRKPKCGKGTHCSRNAYMLVYRLQTQEKPNTTVQVPAFLQELVDRDNSKFEEWCIEMAEMRKQSVDKGKAKHEEVKELYQRLPAGAEPYEFVSLEWLQKWLDESTPTKPIDNHACLCSHDKLHPDKISIMKRISEYAADIFYSRYGGGPRLTVKALCKECVVERCRILRLKNQLNEDYKTVNNLLKAAVKGSDGFWVGKSSLRSWRQLALEQLDEQDGDAEQSNGKMNGSTLNKDESKEERKEEEELNFNEDILCPHGELCISENERRLVSKEAWSKLQQYFPKAPEFPSYKECCSQCKILEREGEENEALHKMIANEQKTSLPNLFQDKNRPCLSNWPEDTDVLYIVSQFFVEEWRKFVRKPTRCSPVSSVGNSALLCPHGGLMFTFASMTKEDSKLIALIWPSEWQMIQKLFVVDHVIKITRIEVGDVNPSETQYISEPKLCPECREGLLCQQQRDLREYTQATIYVHKVVDNKKVMKDSAPELNVSSSETEEDKEEAKPDGEKDPDFNQSNGGTKRQKISHQNYIAYQKQVIRRSMRHRKVRGEKALLVSANQTLKELKIQIMHAFSVAPFDQNLSIDGKILSDDCATLGTLGVIPESVILLKADEPIADYAAMDDVMQVCMPEEGFKGTGLLGH [USP48] | -0.074 | 1.52 | 2.6 | -0.183 | 47.4 | 49.1
7 | MAPSTPLLTVRGSEGLYMVNGPPHFTESTVFPRESGKNCKVCIFSKDGTLFAWGNGEKVNIISVTNKGLLHSFDLLKAVCLEFSPKNTVLATWQPYTTSKDGTAGIPNLQLYDVKTGTCLKSFIQKKMQNWCPSWSEDETLCARNVNNEVHFFENNNFNTIANKLHLQKINDFVLSPGPQPYKVAVYVPGSKGAPSFVRLYQYPNFAGPHAALANKSFFKADKVTMLWNKKATAVLVIASTDVDKTGASYYGEQTLHYIATNGESAVVQLPKNGPIYDVVWNSSSTEFCAVYGFMPAKATIFNLKCDPVFDFGTGPRNAAYYSPHGHILVLAGFGNLRGQMEVWDVKNYKLISKPVASDSTYFAWCPDGEHILTATCAPRLRVNNGYKIWHYTGSILHKYDVPSNAELWQVSWQPFLDGIFPAKTITYQAVPSEVPNEEPKVATAYRPPALRNKPITNSKLHEEEPPQNMKPQSGNDKPLSKTALKNQRKHEAKKAAKQEARSDKSPDLAPTPAPQSTPRNTVSQSISGDPEIDKKIKNLKKKLKAIEQLKEQAATGKQLEKNQLEKIQKETALLQELEDLELGI [EIF2A] | 0.224 | -0.606 | -1.22 | -0.121 | 52.1 | 51.7
8 | MAPVEHVVADAGAFLRHAALQDIGKNIYTIREVVTEIRDKATRRRLAVLPYELRFKEPLPEYVRLVTEFSKKTGDYPSLSATDIQVLALTYQLEAEFVGVSHLKQEPQKVKVSSSIQHPETPLHISGFHLPYKPKPPQETEKGHSACEPENLEFSSFMFWRNPLPNIDHELQELLIDRGEDVPSEEEEEEENGFEDRKDDSDDDGGGWITPSNIKQIQQELEQCDVPEDVRVGCLTTDFAMQNVLLQMGLHVLAVNGMLIREARSYILRCHGCFKTTSDMSRVFCSHCGNKTLKKVSVTVSDDGTLHMHFSRNPKVLNPRGLRYSLPTPKGGKYAINPHLTEDQRFPQLRLSQKARQKTNVFAPDYIAGVSPFVENDISSRSATLQVRDSTLGAGRRRLNPNASRKKFVKKR [NOB1] | -0.457 | 0.938 | 0.387 | 0.197 | 50.3 | 49.8
